Results published in publication PMC8417553 (2021).

Target: CCL11 (eotaxin-1) 24-97 (Homo sapiens, UniProt P51671)
Assay: fluorescence polarization

Chain of CCL11 (eotaxin-1) 24-97 (P51671 24-97): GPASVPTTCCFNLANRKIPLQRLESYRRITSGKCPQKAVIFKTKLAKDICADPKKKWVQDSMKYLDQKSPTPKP

Binder	Kd
CCR3 (protein, FITC-labeled CCL11, POPC SMALPs with 30% cholesterol) MTTSLDTVETFGTTSYYDDVGLLCEKADTRALMAQFVPPLYSLVFTVGLLGNVVVVMILIKYRRLRIMTNIYLLNLAISDLLFLVTLPFWIHYVRGHNWVFGHGMCKLLSGFYHTGLYSEIFFIILLTIDRYLAIVHAVFALRARTVTFGVITSIVTWGLAVLAALPEFIFYETEELFEETLCSALYPEDTVYSWRHFHTLRMTIFCLVLPLLVMAICYTGIIKTLLRCPSKKKYKAIRLIFVIMAVFFIFWTPYNVAILLSSYQSILFGNDCERSKHLDLVMLVTEVIAYSHCCMNPVIYAFVGERFRKYLRHFFHRHLLMHLGRYIPFLPSEKLERTSSVSPSTAEPELSIVF	30 nM
CCR3 (protein, FITC-labeled CCL11, proteoliposomes with 40% cholesterol) MTTSLDTVETFGTTSYYDDVGLLCEKADTRALMAQFVPPLYSLVFTVGLLGNVVVVMILIKYRRLRIMTNIYLLNLAISDLLFLVTLPFWIHYVRGHNWVFGHGMCKLLSGFYHTGLYSEIFFIILLTIDRYLAIVHAVFALRARTVTFGVITSIVTWGLAVLAALPEFIFYETEELFEETLCSALYPEDTVYSWRHFHTLRMTIFCLVLPLLVMAICYTGIIKTLLRCPSKKKYKAIRLIFVIMAVFFIFWTPYNVAILLSSYQSILFGNDCERSKHLDLVMLVTEVIAYSHCCMNPVIYAFVGERFRKYLRHFFHRHLLMHLGRYIPFLPSEKLERTSSVSPSTAEPELSIVF	20 nM
CCR3 (protein, FITC-labeled CCL11, proteoliposomes with 60% cholesterol) MTTSLDTVETFGTTSYYDDVGLLCEKADTRALMAQFVPPLYSLVFTVGLLGNVVVVMILIKYRRLRIMTNIYLLNLAISDLLFLVTLPFWIHYVRGHNWVFGHGMCKLLSGFYHTGLYSEIFFIILLTIDRYLAIVHAVFALRARTVTFGVITSIVTWGLAVLAALPEFIFYETEELFEETLCSALYPEDTVYSWRHFHTLRMTIFCLVLPLLVMAICYTGIIKTLLRCPSKKKYKAIRLIFVIMAVFFIFWTPYNVAILLSSYQSILFGNDCERSKHLDLVMLVTEVIAYSHCCMNPVIYAFVGERFRKYLRHFFHRHLLMHLGRYIPFLPSEKLERTSSVSPSTAEPELSIVF	11 nM
